Data reported in article PMC7000413, “CDX-301: a novel medical countermeasure for hematopoietic acute radiation syndrome in mice” (Scientific Reports, 2020).

Target: the molecule itself
Assay: SEC; size exclusion chromatography of purified CDX-301; apparent molecular weight approximately 44,000 Daltons; conditions not given

B1: CDX-301, soluble recombinant human Fms-related tyrosine kinase 3 ligand (Flt3L) (ligand)
chain: TQDCSFQHSPISSDFAVKIRELSDYLLQDYPVTVASNLQDEELCGGLWRLVLAQRWMERLKTVAGSKMQGLLERVNTEIHFVTKCAFQPPPSCLRFVQTNISRLLQETSEQLVALKPWITRQNFSRCLELQCQPDSSTLPPPWSPRPLEATAP
modifications: glycoprotein with 2 potential N-linked (N100, N123) and 5 potential O-linked (S136, S137, T138, S144, T151) glycosylation sites; 3 intramolecular disulfide bonds
notes: human Flt3 ligand, the 153 N-terminal amino acids of the extracellular domain; 3 C-terminal residues of the extracellular domain, the transmembrane domain and the cytoplasmic domain eliminated; mature, secreted protein of 153 amino acids. numbers count on: the mature protein; Non-covalent homodimer; also called rhuFlt3L; Flt3 Ligand; source: manufactured under cGMPs by Celldex Therapeutics
- stoichiometry N: 2
